Laboratory results from patent publication US9051356.

Target: synthetic glycosylated MUC1 30-mer peptide …[GalNAcalpha]…
Assay: ELISA on plate-coated glycosylated MUC1 30-mer peptide, antibody 1-400 ng/ml, anti-human Fcgamma1-peroxidase detection

synthetic glycosylated MUC1 30-mer peptide …[GalNAcalpha]…, sequence (peptide, as listed by the source): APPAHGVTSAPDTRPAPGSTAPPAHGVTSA

binding activity, percent higher than that of the same antibody isolated from CHOdhfr- cells: 50%
Substance: chimeric PankoMab isolated from NM-F9 cells (antibody)
